Assay [1] has as its target T1, recombinant human OX40-Fc (human, UniProt P43489 29-214).
T1 construct: also called rh-OX40-Fc; human OX40 hFC (R & D systems)
T1 sequence: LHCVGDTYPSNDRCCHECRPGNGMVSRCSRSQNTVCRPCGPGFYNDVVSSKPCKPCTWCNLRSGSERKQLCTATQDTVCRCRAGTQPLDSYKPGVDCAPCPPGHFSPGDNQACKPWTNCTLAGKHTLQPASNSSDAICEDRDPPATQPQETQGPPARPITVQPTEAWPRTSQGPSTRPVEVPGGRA
As to the kind of experiment: ELISA, OX40-Fc coated, VHH at 1000 nM. On the technique in general: An ELISA detects its analyte on a solid surface through an enzyme-linked reagent.
Description: (§1) After four times washing with PBST, the plate was incubated with detecting antibody anti-his-HRP (1:4000 dilution) 100 μl per well for one hour with shaking at 60 rpm. The plate was developed with 100 μL of TMB per well in the dark and then stopped by 50 μL of stop solution per well. […] Data was analyzed using GraphPad Prisma 9.1.

Assay [2] has as its target T1, recombinant human OX40-Fc. As to the kind of experiment: ELISA, OX40-Fc coated, VHH at 1.6 nM.
Description: as §1
The target in assay [3] is T1, recombinant human OX40-Fc. Put plainly: BLI, VHH-His on anti-His tips, OX40 hFc in solution.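 Further: kinetics recorded at 30 °C in PBS pH 7.2, with 200 s of association followed by dissociation monitored in PBS lacking the OX40 protein.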 Background: BLI is a label-free optical method that tracks binding on a fibre tip over time.
Description: Bio-Layer Interferometry (BLI) kinetic binding analysis. […] Affinity measurements were performed with Gator equipped with Anti-Penta-His capture (HIS1K) biosensor tips. The assay was performed at 30° C. in 1×PBS buffer (Gibco®, PBS pH7.2). Samples were agitated at 1000 rpm. Prior to analysis, sensors were humidified for 15 min. Purified anti-OX40 VHH was tested for its binding capacity with HIS1K sensor tips. Tips were loaded using 20 μg/ml of anti-OX40 VHH. Loading proceeded for 300 s resulting in capture levels of between 1.8 and 2 nm. […] Association was initiated and monitored for 200 sec, after which tips were transferred to 1×PBS buffer without Factor protein (Gibco, PBS pH 7.2), in order to monitor dissociation. Sensor data was collected throughout the experiments, processed, and analyzed using the Gator data analysis software.
The target in assay [4] is T1, recombinant human OX40-Fc. As to the kind of experiment: blocking ELISA, OX40-hFc premixed with VHH on coated OX40L-mFc; full blocker; full blocker.
Description: Blocking Assay. The 96-well plate was coated with 100 μL of 1 μg/mL OX40L-mFc prepared in antigen coating buffer overnight at 4° C., then blocked with 2% BSA for 1 hour at 25° C. […] The plate was washed with PBST four times, then incubated with Mouse anti-human IgG Fc-HRP at 25° C. for 1 hour. After four times of wash with PBST, the plate was developed with 100 μL of TMB per well for 10 to 20 min in the dark and then stopped by adding 50 μL of Stop Solution.
The target of assay [5] is T1, recombinant human OX40-Fc. Put plainly: ELISA, OX40-Fc coated, VHH at 0.32 nM.
Description: as §1
For assay [6], the target named is T1, recombinant human OX40-Fc. As to the kind of experiment: ELISA, OX40-Fc coated, VHH at 8 nM.
Description: as §1
Assay [7] has as its target T1, recombinant human OX40-Fc. Put plainly: ELISA, OX40-Fc coated, VHH at 0.064 nM.
Description: as §1
For assay [8], the target named is T1, recombinant human OX40-Fc. Put plainly: ELISA, OX40-Fc coated, VHH at 40 nM.
Description: as §1
The target in assay [9] is T1, recombinant human OX40-Fc. Put plainly: ELISA, OX40-Fc coated, VHH at 200 nM.
Description: as §1
The target in assay [10] is T1, recombinant human OX40-Fc. Put plainly: ELISA, OX40-Fc coated, VHH at 0.0128 nM.
Description: as §1
For assay [11], the target named is T2, EGFR Fc (human, UniProt P00533 25-645).
T2 construct: also called EGFR-hFc; recombinant human EGFR-Fc
Put plainly: ELISA, EGFR Fc coated, VHH at 50 nM.
Description: (§2) After four rounds of washing with PBST, the plate was incubated with detecting antibody anti-his-HRP (1:4000 dilution) 100 μl per well for one hour with shaking at 60 rpm. The plate was developed with 100 μL of TMB per well in the dark and then stopped by 50 μL of stop solution per well. […] Data was analyzed using GraphPad Prisma 9.1.

The target in assay [12] is T2, EGFR Fc. As to the kind of experiment: blocking ELISA, EGFR-hFc + VHH at 200 nM on coated EGF-mFc.
Description: (§3) After incubation at 4° C. overnight, the plate was washed four times of PBST and blocked with 200 μl per well of 2% BSA for one hour at room temperature. […] The plate was washed twice with PBST, and the pre-mixed samples were added to the 96-well plate shaking at 60 rpm for one hour at room temperature. After four washes of PBST, the plate was incubated with detecting antibody anti-his-HRP (1:4000 dilution) 100 μl per well for one hour with shaking at 60 rpm. The plate was washed with four times of PBST and added 100 μl per well of substrate TMB followed by 50 μl of stop solution.
In assay [13] the target is T2, EGFR Fc. As to the kind of experiment: ELISA, EGFR Fc coated, VHH at 0.0032 nM.
Description: as §2
The target of assay [14] is T3, EGFR (recombinant human, BLI antigen) (human, UniProt P00533 25-645).
T3 construct: also called rh-EGFR; human EGFR
Put plainly: BLI (Octet) as in Example 1; printed under the head Kon(1/Ms), read as koff.

The target of assay [15] is T2, EGFR Fc. Put plainly: ELISA, EGFR Fc coated, VHH at 0.4 nM.
Description: as §2
In assay [16] the target is T2, EGFR Fc. As to the kind of experiment: blocking ELISA, EGFR-hFc + VHH at 0.064 nM on coated EGF-mFc.
Description: as §3
The target in assay [17] is T2, EGFR Fc. Put plainly: ELISA, EGFR Fc coated.
Description: as §2
Assay [18] deals with T2, EGFR Fc. As to the kind of experiment: ELISA, EGFR Fc coated, VHH at 500 nM.
Description: as §2
The target in assay [19] is T2, EGFR Fc. As to the kind of experiment: blocking ELISA, EGFR-hFc + VHH at 1.6 nM on coated EGF-mFc.
Description: as §3
Assay [20] has as its target T2, EGFR Fc. Put plainly: ELISA, EGFR Fc coated, VHH at 0.016 nM.
Description: as §2
Assay [21] concerns the target T2, EGFR Fc. Put plainly: ELISA, EGFR Fc coated, VHH at 0.08 nM.
Description: as §2
In assay [22] the target is T3, EGFR (recombinant human, BLI antigen). As to the kind of experiment: BLI (Octet) as in Example 1; printed under the head Kdis(1/s), read as kon.
In assay [23] the target is T2, EGFR Fc. Put plainly: blocking ELISA, EGFR-hFc + VHH at 0.32 nM on coated EGF-mFc.
Description: as §3
Assay [24] concerns the target T2, EGFR Fc. As to the kind of experiment: ELISA, EGFR Fc coated, VHH at 10 nM.
Description: as §2
In assay [25] the target is T2, EGFR Fc. As to the kind of experiment: blocking ELISA, EGFR-hFc + VHH at 1000 nM on coated EGF-mFc.
Description: as §3
The target of assay [26] is T2, EGFR Fc. Put plainly: blocking ELISA, EGFR-hFc + VHH at 40 nM on coated EGF-mFc.
Description: as §3
The target in assay [27] is T3, EGFR (recombinant human, BLI antigen). As to the kind of experiment: BLI (Octet) as in Example 1.
In assay [28] the target is T2, EGFR Fc. As to the kind of experiment: blocking ELISA, EGFR-hFc + VHH at 0 nM on coated EGF-mFc.
Description: as §3
The target in assay [29] is T2, EGFR Fc. Put plainly: blocking ELISA, EGFR-hFc + VHH at 8 nM on coated EGF-mFc.
Description: as §3
In assay [30] the target is T2, EGFR Fc. As to the kind of experiment: ELISA, EGFR Fc coated, VHH at 2 nM.
Description: as §2

These results are taken from patent US20250376535A1 (BEIJING STARMAB BIOMED TECHNOLOGY, published 2025).

B1: pgXX88-SZ-15 (VHH, not shown: small tags and cut ends)
VHH: QVQLVESGGGLVQPGGSLRLSCSPSEGAFKMLTTGWFRQVLGKEREFVSAISWGGGATYYADSVKGRFTVSRDNAKNTVYLQMNSLKPEDTAVYYCAVDTGNGVATNIRSQSRYDYWGQGTQVTVSS
Consider B1, for which the OD450 is 2.12 in [1]; 1.66 in assay [2]; 0.736 in assay [5]; 1.89 in assay [6]; 0.166 in assay [7]; 1.95 in [8]. Moreover, the OD450 in assay [9] stood at 1.94; in assay [10], 0.068. The Kd (as a rule, the concentration at which binding is half-saturated) in [3] was 0.48 nM. Further, in [3], the koff (commonly a measure of how fast the partners let go of each other) is 0.000259 s⁻¹. Further, in assay [3], the kon (in general, the second-order rate constant of association) was 539000 M⁻¹ s⁻¹. In addition, the EC50 (commonly the midpoint of the concentration-response curve) in assay [4] was 0.12 nM.

B2: pgEG-SX40 (VHH, not shown: small tags and cut ends)
VHH: QVQLVESGGGLVQAGGSLRLSCTGSGIRFSFYTLGWYRQAPGKQRELVAEIYSSDNAKYEDSVKGRFAISRDNAKNSVSLQMNSLKPEDTAVYYCNVRATDYWGPGTQVTVSS
As for B2, the OD450 in the assay with EGFR Fc [11] was found to be 0.786; with EGFR Fc [12], 0.147; in the assay with EGFR Fc [13], 0.121; with EGFR Fc [15], 0.461; with EGFR Fc [16], 1.06; in the assay with EGFR Fc [18], 0.963. Moreover, the OD450 in the assay with EGFR Fc [19] worked out at 0.922; with EGFR Fc [20], 0.144; with EGFR Fc [21], 0.25; with EGFR Fc [23] it was 1.03; with EGFR Fc [24], 0.715; with EGFR Fc [25], 0.151. The OD450 in the assay with EGFR Fc [26] turned out to be 0.414; in the assay with EGFR Fc [28] it was 1.14; with EGFR Fc [29] it was 0.633; with EGFR Fc [30], 0.626. The koff in [14] was found to be 0.000406 s⁻¹. This molecule yielded an EC50 with EGFR Fc [17] of 0.769 nM. Also, in assay [22], the kon was 358000 M⁻¹ s⁻¹. Moreover, in assay [27], the Kd turned out to be 1.13 nM.

B3: pgXX88-10 (VHH, not shown: small tags and cut ends)
VHH: EVQLVESGGGLVQAGESLRLSCSASGSIRLNAVGWFRQAPVNQRLMVATITHNNSTNYADSVQGRFTIARDDAKNTVTLQMNSLKPEDTAVYMCKVYQLPVPISSHDDYWGQGTQVTVSS
B3: the OD450 in assay [1] is 1.62; in assay [2], 1.46; in assay [5] it was 0.993; in assay [6], 1.48; in assay [7], 0.369; in assay [8], 1.54. Further, the OD450 in assay [9] came to 1.61; in assay [10], 0.119. Further, the Kd in assay [3] was less than 0.001 nM. The koff in [3] was 1e-06 s⁻¹. Further, the kon in assay [3] was found to be 662000 M⁻¹ s⁻¹. The EC50 in assay [4] is 0.12 nM.

B4: pgEG-SX6 (VHH, not shown: small tags and cut ends)
VHH: QVQLVESGGGTVQAGGSLRLSCVASGMREDIFDMGWYRQAPGLQRELVATITSGGSTDYADSVKGRFTISRDNTENTLNLQMNMLKPEDTAVYYCNALYFPPSGGRSSEFWGQGTLVTVSS
As to B4, the OD450 was 1.15 with EGFR Fc [11]; 0.668 with EGFR Fc [12]; 0.082 in the assay with EGFR Fc [13]; 1.16 in the assay with EGFR Fc [15]; 0.956 with EGFR Fc [16]; 1.37 in the assay with EGFR Fc [18]. In addition, the OD450 with EGFR Fc [19] was 0.928; with EGFR Fc [20], 0.139; with EGFR Fc [21], 0.496; with EGFR Fc [23], 1.07; with EGFR Fc [24], 1; in the assay with EGFR Fc [25], 0.646. Besides, the OD450 in the assay with EGFR Fc [26] was found to be 0.606; with EGFR Fc [28], 1.04; in the assay with EGFR Fc [29], 0.757; with EGFR Fc [30], 1.83. The koff in assay [14] was found to be 0.000399 s⁻¹. The same molecule returned an EC50 with EGFR Fc [17] of 0.12 nM. In assay [22], the kon came out at 500000 M⁻¹ s⁻¹. The Kd in assay [27] was 0.798 nM.

B5: pgEG-SX22 (VHH, not shown: small tags and cut ends)
VHH: QVQLVESGGGLVQAGGSLRVSCAVSGGALSAYAMAWFRQAPGKEREFVAGLNWGGDETYYADSAKGRFTISKDNAKNTVSLQMNSLEPEDTAVYYCGGRPGPLLSRATGYKYWGQGTQVTVSS
B5: the OD450 with EGFR Fc [11] was found to be 1.78; with EGFR Fc [12], 0.903; with EGFR Fc [13], 0.304; with EGFR Fc [15], 1.72; in the assay with EGFR Fc [16], 0.983; in the assay with EGFR Fc [18] it was 2.16. Besides, the OD450 in the assay with EGFR Fc [19] is 0.864; with EGFR Fc [20], 0.871; with EGFR Fc [21], 1.43; with EGFR Fc [23] it was 0.955; in the assay with EGFR Fc [24] it was 1.94; with EGFR Fc [25], 0.96. Besides, the OD450 was 0.801 in the assay with EGFR Fc [26], 1.07 in the assay with EGFR Fc [28], 0.736 with EGFR Fc [29] and 1.88 in the assay with EGFR Fc [30]. In addition, the koff in assay [14] came out at 0.00028 s⁻¹. For the same molecule, the EC50 with EGFR Fc [17] stood at 0.0072 nM. Further, the kon in assay [22] came out at 602000 M⁻¹ s⁻¹. Also, in assay [27], the Kd amounted to 0.464 nM.

B6: pgEG-SX57 (VHH, not shown: small tags and cut ends)
VHH: QVQLVESGGGLVQAGGSLRLSCAGARSIFSIKPMTWYRQAPGKERELVAWFTSGDSPNYADSVKGRFTISRDSAKNTVYLQMNNLKPEDTAVYYCNAVPPLGRWGQGTLVTVSS
With B6, the OD450 in the assay with EGFR Fc [11] is 2.46; with EGFR Fc [12], 0.158; with EGFR Fc [13], 0.648; with EGFR Fc [15] it was 2.67; with EGFR Fc [16], 1.14; with EGFR Fc [18], 2.61. Moreover, the OD450 is 0.919 in the assay with EGFR Fc [19]; 1.33 with EGFR Fc [20]; 2.37 with EGFR Fc [21]; 1.08 with EGFR Fc [23]; 2.54 with EGFR Fc [24]; 0.15 in the assay with EGFR Fc [25]. Besides, the OD450 with EGFR Fc [26] was 0.433; in the assay with EGFR Fc [28], 1.11; with EGFR Fc [29] it was 0.649; with EGFR Fc [30], 2.79. In addition, the koff in [14] stood at 0.000715 s⁻¹. In addition, in the assay with EGFR Fc [17], the EC50 is 0.022 nM. For the same molecule, in assay [22], the kon is 381000 M⁻¹ s⁻¹. Further, in assay [27], the Kd amounted to 1.87 nM.
